T1: human neuromedin U receptor 1 (human, UniProt Q9HB89 24-426)
T1 sequence (looked up): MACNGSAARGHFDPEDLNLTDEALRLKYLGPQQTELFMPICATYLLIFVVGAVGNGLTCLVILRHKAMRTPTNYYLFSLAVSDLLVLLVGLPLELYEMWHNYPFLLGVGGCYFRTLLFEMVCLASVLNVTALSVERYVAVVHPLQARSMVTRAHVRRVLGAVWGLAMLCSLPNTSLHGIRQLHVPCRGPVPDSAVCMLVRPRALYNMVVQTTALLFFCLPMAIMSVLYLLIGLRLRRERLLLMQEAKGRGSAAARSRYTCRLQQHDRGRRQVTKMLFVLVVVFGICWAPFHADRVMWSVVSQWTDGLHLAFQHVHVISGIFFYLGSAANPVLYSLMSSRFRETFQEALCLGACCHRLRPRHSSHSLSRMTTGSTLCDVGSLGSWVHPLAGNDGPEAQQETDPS

B1: C20DA-gGlu3-Sar12-AEPipAc-Tyr-Phe-NMeLeu-Nle-Arg-NMeAla-Arg-Gly-NH2 (peptide)
peptide: EEEXXXXXXXXXXXXXYFLXRARG
HELM: PEPTIDE1{[O=C(O)CCCCCCCCCCCCCCCCCCC(=O)[*:2]].[gGlu].[gGlu].[gGlu].[Sar].[Sar].[Sar].[Sar].[Sar].[Sar].[Sar].[Sar].[Sar].[Sar].[Sar].[Sar].[O=C(CN1CCN(CCN[*:1])CC1)[*:2]].Y.F.[meL].[Nle].R.[meA].R.G.[am]}$$$$V2.0
SMILES: CCCC[C@H](NC(=O)[C@H](CC(C)C)N(C)C(=O)[C@H](Cc1ccccc1)NC(=O)[C@H](Cc1ccc(O)cc1)NC(=O)CN1CCN(CCNC(=O)CN(C)C(=O)CN(C)C(=O)CN(C)C(=O)CN(C)C(=O)CN(C)C(=O)CN(C)C(=O)CN(C)C(=O)CN(C)C(=O)CN(C)C(=O)CN(C)C(=O)CN(C)C(=O)CN(C)C(=O)CC[C@H](NC(=O)CC[C@H](NC(=O)CC[C@H](NC(=O)CCCCCCCCCCCCCCCCCCC(=O)O)C(=O)O)C(=O)O)C(=O)O)CC1)C(=O)N[C@@H](CCCNC(=N)N)C(=O)N(C)[C@@H](C)C(=O)N[C@@H](CCCNC(=N)N)C(=O)NCC(N)=O
B2: C20DA-gGlu3-Sar9-AEPipAc-Tyr-Phe-NMeLeu-Nle-Arg-NMeAla-Arg-Gly-NH2 (peptide)
peptide: EEEXXXXXXXXXXYFLXRARG
HELM: PEPTIDE1{[O=C(O)CCCCCCCCCCCCCCCCCCC(=O)[*:2]].[gGlu].[gGlu].[gGlu].[Sar].[Sar].[Sar].[Sar].[Sar].[Sar].[Sar].[Sar].[Sar].[O=C(CN1CCN(CCN[*:1])CC1)[*:2]].Y.F.[meL].[Nle].R.[meA].R.G.[am]}$$$$V2.0
SMILES: CCCC[C@H](NC(=O)[C@H](CC(C)C)N(C)C(=O)[C@H](Cc1ccccc1)NC(=O)[C@H](Cc1ccc(O)cc1)NC(=O)CN1CCN(CCNC(=O)CN(C)C(=O)CN(C)C(=O)CN(C)C(=O)CN(C)C(=O)CN(C)C(=O)CN(C)C(=O)CN(C)C(=O)CN(C)C(=O)CN(C)C(=O)CC[C@H](NC(=O)CC[C@H](NC(=O)CC[C@H](NC(=O)CCCCCCCCCCCCCCCCCCC(=O)O)C(=O)O)C(=O)O)C(=O)O)CC1)C(=O)N[C@@H](CCCNC(=N)N)C(=O)N(C)[C@@H](C)C(=O)N[C@@H](CCCNC(=N)N)C(=O)NCC(N)=O
B3: C20DA-gGlu3-Sar9-AEPipAc-Tyr-Phe-NMeLeu-Nle-Dbu-Pro-Arg-Gly-NH2 (peptide)
peptide: EEEXXXXXXXXXXYFLXXPRG
HELM: PEPTIDE1{[O=C(O)CCCCCCCCCCCCCCCCCCC(=O)[*:2]].[gGlu].[gGlu].[gGlu].[Sar].[Sar].[Sar].[Sar].[Sar].[Sar].[Sar].[Sar].[Sar].[O=C(CN1CCN(CCN[*:1])CC1)[*:2]].Y.F.[meL].[Nle].[Dab].P.R.G.[am]}$$$$V2.0
SMILES: CCCC[C@H](NC(=O)[C@H](CC(C)C)N(C)C(=O)[C@H](Cc1ccccc1)NC(=O)[C@H](Cc1ccc(O)cc1)NC(=O)CN1CCN(CCNC(=O)CN(C)C(=O)CN(C)C(=O)CN(C)C(=O)CN(C)C(=O)CN(C)C(=O)CN(C)C(=O)CN(C)C(=O)CN(C)C(=O)CN(C)C(=O)CC[C@H](NC(=O)CC[C@H](NC(=O)CC[C@H](NC(=O)CCCCCCCCCCCCCCCCCCC(=O)O)C(=O)O)C(=O)O)C(=O)O)CC1)C(=O)N[C@@H](CCN)C(=O)N1CCC[C@H]1C(=O)N[C@@H](CCCNC(=N)N)C(=O)NCC(N)=O
B4: C20DA-gGlu3-Sar9-AEPipAc-Tyr-Phe-NMeLeu-Nle-Dbu-NMeAla-Arg-Gly-NH2 (peptide)
peptide: EEEXXXXXXXXXXYFLXXARG
HELM: PEPTIDE1{[O=C(O)CCCCCCCCCCCCCCCCCCC(=O)[*:2]].[gGlu].[gGlu].[gGlu].[Sar].[Sar].[Sar].[Sar].[Sar].[Sar].[Sar].[Sar].[Sar].[O=C(CN1CCN(CCN[*:1])CC1)[*:2]].Y.F.[meL].[Nle].[Dab].[meA].R.G.[am]}$$$$V2.0
SMILES: CCCC[C@H](NC(=O)[C@H](CC(C)C)N(C)C(=O)[C@H](Cc1ccccc1)NC(=O)[C@H](Cc1ccc(O)cc1)NC(=O)CN1CCN(CCNC(=O)CN(C)C(=O)CN(C)C(=O)CN(C)C(=O)CN(C)C(=O)CN(C)C(=O)CN(C)C(=O)CN(C)C(=O)CN(C)C(=O)CN(C)C(=O)CC[C@H](NC(=O)CC[C@H](NC(=O)CC[C@H](NC(=O)CCCCCCCCCCCCCCCCCCC(=O)O)C(=O)O)C(=O)O)C(=O)O)CC1)C(=O)N[C@@H](CCN)C(=O)N(C)[C@@H](C)C(=O)N[C@@H](CCCNC(=N)N)C(=O)NCC(N)=O
B5: C18DA-gGlu2-Sar9-AEPipAc-Tyr-Phe-NMeLeu-Nle-Arg-Pro-Arg-Gly-NH2 (peptide)
peptide: EEXXXXXXXXXXYFLXRPRG
HELM: PEPTIDE1{[O=C(O)CCCCCCCCCCCCCCCCC(=O)[*:2]].[gGlu].[gGlu].[Sar].[Sar].[Sar].[Sar].[Sar].[Sar].[Sar].[Sar].[Sar].[O=C(CN1CCN(CCN[*:1])CC1)[*:2]].Y.F.[meL].[Nle].R.P.R.G.[am]}$$$$V2.0
SMILES: CCCC[C@H](NC(=O)[C@H](CC(C)C)N(C)C(=O)[C@H](Cc1ccccc1)NC(=O)[C@H](Cc1ccc(O)cc1)NC(=O)CN1CCN(CCNC(=O)CN(C)C(=O)CN(C)C(=O)CN(C)C(=O)CN(C)C(=O)CN(C)C(=O)CN(C)C(=O)CN(C)C(=O)CN(C)C(=O)CN(C)C(=O)CC[C@H](NC(=O)CC[C@H](NC(=O)CCCCCCCCCCCCCCCCC(=O)O)C(=O)O)C(=O)O)CC1)C(=O)N[C@@H](CCCNC(=N)N)C(=O)N1CCC[C@H]1C(=O)N[C@@H](CCCNC(=N)N)C(=O)NCC(N)=O
B6: C18DA-gGlu2-Sar9-AEPipAc-Tyr-Phe-NMeLeu-Nle-Arg-NMeAla-Arg-Gly-NH2 (peptide)
peptide: EEXXXXXXXXXXYFLXRARG
HELM: PEPTIDE1{[O=C(O)CCCCCCCCCCCCCCCCC(=O)[*:2]].[gGlu].[gGlu].[Sar].[Sar].[Sar].[Sar].[Sar].[Sar].[Sar].[Sar].[Sar].[O=C(CN1CCN(CCN[*:1])CC1)[*:2]].Y.F.[meL].[Nle].R.[meA].R.G.[am]}$$$$V2.0
SMILES: CCCC[C@H](NC(=O)[C@H](CC(C)C)N(C)C(=O)[C@H](Cc1ccccc1)NC(=O)[C@H](Cc1ccc(O)cc1)NC(=O)CN1CCN(CCNC(=O)CN(C)C(=O)CN(C)C(=O)CN(C)C(=O)CN(C)C(=O)CN(C)C(=O)CN(C)C(=O)CN(C)C(=O)CN(C)C(=O)CN(C)C(=O)CC[C@H](NC(=O)CC[C@H](NC(=O)CCCCCCCCCCCCCCCCC(=O)O)C(=O)O)C(=O)O)CC1)C(=O)N[C@@H](CCCNC(=N)N)C(=O)N(C)[C@@H](C)C(=O)N[C@@H](CCCNC(=N)N)C(=O)NCC(N)=O
B7: C20DA-gGlu3-Sar12-AEPipAc-Tyr-Phe-NMeLeu-Nle-Dbu-NMeAla-Arg-Gly-NH2 (peptide)
peptide: EEEXXXXXXXXXXXXXYFLXXARG
HELM: PEPTIDE1{[O=C(O)CCCCCCCCCCCCCCCCCCC(=O)[*:2]].[gGlu].[gGlu].[gGlu].[Sar].[Sar].[Sar].[Sar].[Sar].[Sar].[Sar].[Sar].[Sar].[Sar].[Sar].[Sar].[O=C(CN1CCN(CCN[*:1])CC1)[*:2]].Y.F.[meL].[Nle].[Dab].[meA].R.G.[am]}$$$$V2.0
SMILES: CCCC[C@H](NC(=O)[C@H](CC(C)C)N(C)C(=O)[C@H](Cc1ccccc1)NC(=O)[C@H](Cc1ccc(O)cc1)NC(=O)CN1CCN(CCNC(=O)CN(C)C(=O)CN(C)C(=O)CN(C)C(=O)CN(C)C(=O)CN(C)C(=O)CN(C)C(=O)CN(C)C(=O)CN(C)C(=O)CN(C)C(=O)CN(C)C(=O)CN(C)C(=O)CN(C)C(=O)CC[C@H](NC(=O)CC[C@H](NC(=O)CC[C@H](NC(=O)CCCCCCCCCCCCCCCCCCC(=O)O)C(=O)O)C(=O)O)C(=O)O)CC1)C(=O)N[C@@H](CCN)C(=O)N(C)[C@@H](C)C(=O)N[C@@H](CCCNC(=N)N)C(=O)NCC(N)=O

biological target: T1, human neuromedin U receptor 1; assay: cell-based or functional assay

| Binder | EC50 (hNMUR1) buffer [nM] |
| --- | --- |
| B1 | 670 |
| B2 | 440 |
| B3 | 540 |
| B4 | > 1000 |
| B5 | 90 |
| B6 | 550 |
| B7 | > 1000 |

From US20240279278A1, “NMU RECEPTOR 2 AGONISTS” (Boehringer Ingelheim International GmbH, priority 2023, published 2024)
